In the assay the target is T1, AGT-LM, minor allele of the human alanine glyoxylate aminotransferase (Homo sapiens, AGXT minor allele (AGT-LM), UniProt P21549, strain).
T1 construct: alanine:glyoxylate aminotransferase, human, minor allele (AGT-LM)
In words: SPR; Biacore T200; His-tagged NB-AGT captured on a Ni-loaded NTA chip and covalently immobilised (EDC/NHS); AGT-LM injected at 0.74-60 nM in HBS-EP+ (10 mM HEPES, 150 mM NaCl, 3 mM EDTA, 0.05% Tween 20), single cycle kinetics, 120 s pulses, 70 uL/min; 25 °C; 1:1 interaction model. The note with it: both partners purified.

The source of these data is PMC11891404, “Thermodynamic versus kinetic basis for the high conformational stability of nanobodies for therapeutic applications” (Febs Letters, 2024).

B1: NB-AGT-1 (VHH)
VHH: QVQLVESGGGLVQAGDSLRLSCAASGLAFSTYGMGWFRQAPGKEREFVADINWSGSSTYVADSVKGRFTISRDNAKNTVYLQMNRLKPEDTAVYSCAAAPGGGLRAGPSRRYEYWGQGTQVTVSS
notes: also in the AlphaFold 2 model files of Data S1; Selected by phage display from an immunised llama; Covalently immobilised on the NTA chip after capture by its His tag; also called NB-1; nanobody 1 raised against AGT-LM; source: E. coli BL21 (DE3), pET-24(+), purified (IMAC, SuperDex 75 SEC); not shown: His6, C-terminal, kept
Usually Kd stands for the equilibrium constant for the complex coming apart. Low values mean a tighter complex, high ones a looser complex. Turning to B1, the equilibrium dissociation constant (Kd) came out at 3.8 nM.

B2: NB-AGT-6 (VHH)
VHH: QVQLVESGGGSVQTGGSLRLACVASGFTSDHYSIGWFRQAPGKEREGVSCIGMHDGSTKYAESVKGRFTISSDNDKNTVYLQMNSLKPEDTAVYYCAAGPLVLLDSDTYQSWGEGTQVTVSS
notes: also in the AlphaFold 2 model files of Data S1; Selected by phage display from an immunised llama; Covalently immobilised on the NTA chip after capture by its His tag; also called NB-6; nanobody 6 raised against AGT-LM; source: E. coli BL21 (DE3), pET-24(+), purified (IMAC, SuperDex 75 SEC); not shown: His6, C-terminal, kept
On to B2, for which the Kd is around 0.005 nM.
